Reference: US20100209436

T1: human OPA1 splice variant 7
T1 chain: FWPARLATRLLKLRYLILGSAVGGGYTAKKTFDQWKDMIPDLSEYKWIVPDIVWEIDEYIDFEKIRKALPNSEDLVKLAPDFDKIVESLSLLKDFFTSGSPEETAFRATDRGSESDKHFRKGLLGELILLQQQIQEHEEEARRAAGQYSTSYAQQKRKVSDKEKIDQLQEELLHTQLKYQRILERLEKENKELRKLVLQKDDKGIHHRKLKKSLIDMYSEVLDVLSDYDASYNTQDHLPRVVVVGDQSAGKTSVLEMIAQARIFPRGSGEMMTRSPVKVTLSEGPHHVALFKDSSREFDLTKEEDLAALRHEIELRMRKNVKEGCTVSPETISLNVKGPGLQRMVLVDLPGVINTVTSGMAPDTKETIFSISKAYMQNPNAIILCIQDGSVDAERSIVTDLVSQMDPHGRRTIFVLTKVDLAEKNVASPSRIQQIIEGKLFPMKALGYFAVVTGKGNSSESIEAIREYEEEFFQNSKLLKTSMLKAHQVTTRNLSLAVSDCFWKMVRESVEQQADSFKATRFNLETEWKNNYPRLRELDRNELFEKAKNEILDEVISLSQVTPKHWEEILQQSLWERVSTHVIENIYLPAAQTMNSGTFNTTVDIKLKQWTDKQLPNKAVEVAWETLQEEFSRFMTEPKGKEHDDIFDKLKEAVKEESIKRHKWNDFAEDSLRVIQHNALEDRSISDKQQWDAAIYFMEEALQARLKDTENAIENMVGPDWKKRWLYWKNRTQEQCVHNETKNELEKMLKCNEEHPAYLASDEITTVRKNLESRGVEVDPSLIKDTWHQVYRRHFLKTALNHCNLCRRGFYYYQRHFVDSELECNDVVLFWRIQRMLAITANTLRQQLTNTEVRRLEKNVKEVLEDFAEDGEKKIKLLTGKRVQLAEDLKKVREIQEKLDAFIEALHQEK

T2: human OPA1 splice variant 4
T2 chain: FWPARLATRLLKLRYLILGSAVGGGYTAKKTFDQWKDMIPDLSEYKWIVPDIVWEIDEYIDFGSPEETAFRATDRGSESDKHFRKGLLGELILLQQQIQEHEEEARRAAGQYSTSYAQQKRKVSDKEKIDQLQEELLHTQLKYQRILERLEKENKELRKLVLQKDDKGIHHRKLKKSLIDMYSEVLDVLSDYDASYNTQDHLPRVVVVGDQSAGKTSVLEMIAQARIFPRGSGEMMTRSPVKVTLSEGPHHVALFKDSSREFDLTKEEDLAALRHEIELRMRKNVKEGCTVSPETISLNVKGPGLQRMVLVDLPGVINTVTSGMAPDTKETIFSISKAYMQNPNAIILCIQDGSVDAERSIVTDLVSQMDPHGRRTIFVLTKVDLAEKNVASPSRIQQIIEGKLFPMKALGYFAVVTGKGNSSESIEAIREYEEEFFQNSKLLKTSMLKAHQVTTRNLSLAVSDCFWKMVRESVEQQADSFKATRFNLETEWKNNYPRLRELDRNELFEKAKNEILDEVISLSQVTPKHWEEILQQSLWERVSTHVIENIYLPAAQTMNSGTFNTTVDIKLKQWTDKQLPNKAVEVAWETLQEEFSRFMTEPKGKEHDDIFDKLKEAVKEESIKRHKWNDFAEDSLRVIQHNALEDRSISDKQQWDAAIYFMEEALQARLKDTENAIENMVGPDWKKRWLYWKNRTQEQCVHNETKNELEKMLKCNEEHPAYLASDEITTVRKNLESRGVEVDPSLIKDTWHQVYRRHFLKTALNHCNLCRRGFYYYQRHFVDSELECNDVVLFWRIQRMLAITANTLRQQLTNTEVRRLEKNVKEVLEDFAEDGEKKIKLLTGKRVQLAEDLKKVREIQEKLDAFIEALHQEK

T3: human OPA1 splice variant 8 (A210V polymorphism)
T3 chain: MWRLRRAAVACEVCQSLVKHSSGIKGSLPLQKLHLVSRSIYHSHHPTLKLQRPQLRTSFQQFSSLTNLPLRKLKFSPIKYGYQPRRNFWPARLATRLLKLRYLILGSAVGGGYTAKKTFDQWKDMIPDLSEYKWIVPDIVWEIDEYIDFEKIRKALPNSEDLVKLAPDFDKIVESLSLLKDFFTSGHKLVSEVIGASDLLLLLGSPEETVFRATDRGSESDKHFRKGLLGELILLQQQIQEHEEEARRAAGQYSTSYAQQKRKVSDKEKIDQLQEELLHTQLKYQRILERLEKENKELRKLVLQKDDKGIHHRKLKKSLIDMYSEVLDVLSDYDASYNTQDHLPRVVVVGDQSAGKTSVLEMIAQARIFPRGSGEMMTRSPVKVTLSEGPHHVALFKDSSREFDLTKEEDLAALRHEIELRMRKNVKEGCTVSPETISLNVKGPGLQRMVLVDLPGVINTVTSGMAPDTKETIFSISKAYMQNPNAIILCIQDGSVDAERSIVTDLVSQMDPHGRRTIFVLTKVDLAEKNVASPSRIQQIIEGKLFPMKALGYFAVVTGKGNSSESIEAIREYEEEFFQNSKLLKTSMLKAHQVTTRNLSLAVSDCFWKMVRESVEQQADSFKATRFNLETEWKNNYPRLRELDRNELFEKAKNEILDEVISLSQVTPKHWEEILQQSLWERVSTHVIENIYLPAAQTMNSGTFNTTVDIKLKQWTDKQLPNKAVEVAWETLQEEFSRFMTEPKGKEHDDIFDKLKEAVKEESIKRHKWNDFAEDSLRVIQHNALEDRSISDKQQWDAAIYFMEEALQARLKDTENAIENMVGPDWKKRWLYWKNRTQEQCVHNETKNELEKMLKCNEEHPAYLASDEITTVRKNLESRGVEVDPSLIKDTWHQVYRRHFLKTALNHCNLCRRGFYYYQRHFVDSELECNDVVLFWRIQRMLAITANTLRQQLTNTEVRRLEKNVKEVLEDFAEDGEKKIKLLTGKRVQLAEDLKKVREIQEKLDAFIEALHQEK

B1: homo-oligomeric murine Afg3l1 complex (Yta10 (1-61)-Afg3l1 (25-789)-Myc) (protein)
chain: MMMWQRYARGAPRSLTSLSFGKASRISTVKPVLRSRMPVHQRLQTLSGLATRNTIHRSTQIGGCAGSGGTVWSSVRACGIALQGHLGRCSQQLALQGKLTSFSPRLYSKPPRGFEKFFKNKKNRKSASPGNSVPPKKEPKNAGPGGDGGNRGGKGDDFPWWKRMQKGEFPWDDKDFRSLAVLGAGVAAGFLYFYFRDPGKEITWKHFVQYYLARGLVDRLEVVNKQFVRVIPVPGTTSERFVWFNIGSVDTFERNLESAQWELGIEPTNQAAVVYTTESDGSFLRSLVPTLVLVSILLYAMRRGPMGTGRGGRGGGLFSVGETTAKILKNNIDVRFADVAGCEEAKLEIMEFVNFLKNPKQYQDLGAKIPKGAMLTGPPGTGKTLLAKATAGEANVPFITVNGSEFLEMFVGVGPARVRDMFAMARKHAPCILFIDEIDAIGRKRGRGHLGGQSEQENTLNQMLVEMDGFNSSTNVVVLAGTNRPDILDPALTRPGRFDRQIYIGPPDIKGRSSIFKVHLRPLKLDGSLSKDALSRKLAALTPGFTGADISNVCNEAALIAARHLSPSVQERHFEQAIERVIGGLEKKTQVLQPSEKTTVAYHEAGHAVVGWFLEHADPLLKVSIIPRGKGLGYAQYLPREQFLYTREQLFDRMCMMLGGRVAEQLFFGQITTGAQDDLRKVTQSAYAQIVQFGMSEKLGQVSFDFPRQGETMVEKPYSEATAQLIDEEVRCLVRSAYNRTLELLTQCREQVEKVGRRLLEKEVLEKADMIELLGPRPFAEKSTYEEFVEGTGSLEEDTSLPEGLKDWNKGREEGGTERGLQESPV
B2: murine paraplegin expressed alone (Yta10 (1-61)-paraplegin (44-781)) (protein)
chain: MMMWQRYARGAPRSLTSLSFGKASRISTVKPVLRSRMPVHQRLQTLSGLATRNTIHRSTQIAARGTPVGPAAAGGHAPQSLLLRILTPSFEGISGLLLKQHIVPNAVRLWPLSGSTLYFNTSRMKQKNKDNDKPKGKTPEDDEEEKRRKEREDQMYRERLRTLFIIALVMSLLNSLSTSGGSISWADFVNEMLAKGEVQRVQVVPESDVVEVYLHPGAVVFGRPRLALMYRMQVANIDKFEEKLRAAEDELNIESKDRIPVSYKRTGFFGNALYALGMTAVGLAILWYVFRLAGMTGREGGFSAFNQLKMARFTIVDGKTGKGVSFQDVAGMHEAKLEVREFVDYLKSPERFLQLGAKVPKGALLLGPPGCGKTLLAKAVATEAQVPFLAMAGPEFVEVIGGLGAARVRSLFKEARARAPCIVYIDEIDAVGKKRSTSMSGFSNTEEEQTLNQLLVEMDGMGTTDHVIVLASTNRADVLDNALMRPGRLDRHVFIDLPTLQERREIFEQHLKGLKLTQPSSFYSQRLAELTPGFSGADIANICNEAALHAAREGHTSVHTFNFEYAVERVIAGTAKKSKILSKEEQRVVAFHESGHALVGWLLEHTEAVMKVSIAPRTNAALGFSQMLPRDQYLFTKEQLFERMCMALGGRAAEAISFSRVTSGAQDDLRKVTRIAYSMVKQFGMAPSIGPVSFPEAQEGLMGIGRRPFSQGLQQMMDHEAKLLVAKAYRHTEKVLLDNLDKLQALANALLEKEVINYEDIEALIGPPPHGPKKMIAPQKWIDAEKERQASGEEEAPAP
B3: yeast m-AAA protease (subunits Yta10 and Yta12) (protein)
chain 1: MMMWQRYARGAPRSLTSLSFGKASRISTVKPVLRSRMPVHQRLQTLSGLATRNTIHRSTQIRSFHISWTRLNENRPNKEGEGKNNGNKDNNSNKEDGKDKRNEFGSLSEYFRSKEFANTMFLTIGFTIIFTLLTPSSNNSGDDSNRVLTFQDFKTKYLEKGLVSKIYVVNKFLVEAELVNTKQVVSFTIGSVDIFEEQMDQIQDLLNIPPRDRIPIKYIERSSPFTFLFPFLPTIILLGGLYFITRKINSSPPNANGGGGGGLGGMFNVGKSRAKLFNKETDIKISFKNVAGCDEAKQEIMEFVHFLKNPGKYTKLGAKIPRGAILSGPPGTGKTLLAKATAGEANVPFLSVSGSEFVEMFVGVGASRVRDLFTQARSMAPSIIFIDEIDAIGKERGKGGALGGANDEREATLNQLLVEMDGFTTSDQVVVLAGTNRPDVLDNALMRPGRFDRHIQIDSPDVNGRQQIYLVHLKRLNLDPLLTDDMNNLSGKLATLTPGFTGADIANACNEAALIAARHNDPYITIHHFEQAIERVIAGLEKKTRVLSKEEKRSVAYHEAGHAVCGWFLKYADPLLKVSIIPRGQGALGYAQYLPPDQYLISEEQFRHRMIMALGGRVSEELHFPSVTSGAHDDFKKVTQMANAMVTSLGMSPKIGYLSFDQNDGNFKVNKPFSNKTARTIDLEVKSIVDDAHRACTELLTKNLDKVDLVAKELLRKEAITREDMIRLLGPRPFKERNEAFEKYLDPKSNTEPPEAPAATN
chain 2: MLLLSWSRIATKVVRRPVRFRSYYGLTHIKSLHTQYRLLNRLQENKSGNKNEDNNEDAKLNKEIPTDEEVEAIRKQVEKYIEQTKNNTIPANWKEQKRKIDESIRRLEDAVLKQESNRIQEERKEKEEENGPSKAKSNRTKEQGYFEGNNSRNIPPPPPPPPPKPPLNDPSNPVSKNVNLFQIGLTFFLLSFLLDLLNSLEEQSEITWQDFREKLLAKGYVAKLIVVNKSMVKVMLNDNGKNQADNYGRNFYYFTIGSIDSFEHKLQKAQDELDIDKDFRIPVLYVQEGNWAKAMFQILPTVLMIAGIIWLTRRSAQAAGGSRGGIFGLSRSKAKKFNTETDVKIKFKDVAGCDEAKEEIMEFVSFLKEPSRYEKMGAKIPRGAILSGPPGTGKTLLAKATAGEAGVPFYFVSGSEFVEMFVGVGAARVRDLFKTARENAPSIVFIDEIDAIGKARQKGNFSGANDERENTLNQMLVEMDGFTPADHVVVLAGTNRPDILDKALLRPGRFDRHINIDKPELEGRKAIFAVHLHHLKLAGEIFDLKNRLAALTPGFSGADIANVCNEAALIAARSDEDAVKLNHFEQAIERVIGGVERKSKLLSPEEKKVVAYHEAGHAVCGWYLKYADPLLKVSIIPRGQGALGYAQYLPGDIFLLTEQQLKDRMTMSLGGRVSEELHFPSVTSGASDDFKKVTSMATAMVTELGMSDKIGWVNYQKRDDSDLTKPFSDETGDIIDSEVYRIVQECHDRCTKLLKEKAEDVEKIAQVLLKKEVLTREDMIDLLGKRPFPERNDAFDKYLNDYETEKIRKEEEKNEKRNEPKPSTN

Key:
[1] = biological target: T1, human OPA1 splice variant 7
[2] = biological target: T2, human OPA1 splice variant 4
[3] = biological target: T3, human OPA1 splice variant 8 (A210V …)

Row | Protein | OPA1 processing (western blot, Δyta10Δyta12 yeast) [1] | OPA1 processing (western blot, Δyta10Δyta12 yeast) [2] | OPA1 processing (western blot, Δyta10Δyta12 yeast) [3] | OPA1 processing (western blot, yeast deletion strains) [1]
1 | B1 | expression of each of the murine subunits, Afg3l2 or Afg3l1, in Δyta10Δyta12 cells promoted OPA1 processing; the isoform S4 predominantly accumulated in the presence of Afg3l1 | Afg3l1 and Afg3l2 complexes mediated processing of OPA1 splice variants 4 and 8 in a similar manner | Afg3l1 and Afg3l2 complexes mediated processing of OPA1 splice variants 4 and 8 in a similar manner | –
2 | B2 | Cleavage of OPA1 upon expression of paraplegin alone was not observed | – | – | –
3 | B3 | – | – | – | small isoforms did not accumulate in cells lacking the yeast m-AAA protease subunits Yta10 or Yta12
